Measurements published in patent publication US9029505B2, “Modified vasoactive intestinal peptides” (Phasebio Pharmaceuticals, Inc., priority 2009, dated 2015).
Blank lines part the entries; values can stand above or below the molecule they belong to. No end group written: not given here. ELP1‑120 = 120 ELP1 units (VPGXG) fused at the C-terminus

How the values were obtained:
[1] = target: T1, human Vasoactive Intestinal Peptide Receptor 2 (VPAC2) (Homo sapiens, UniProt P41587); assay: cell-based cAMP bioassay in CHO cells expressing VPAC2; settings: for activity compared with native VIP protein for VPAC2 receptor (cAMP produced): CHO cells expressing VPAC2, 30 minute incubation, FIG. 8, PB1047 DPP-IV treated before addition
T1 construct: expressed in transfected cells; host or cells: Chinese Hamster Ovary (CHO) cells
T1 sequence (P41587 24-438): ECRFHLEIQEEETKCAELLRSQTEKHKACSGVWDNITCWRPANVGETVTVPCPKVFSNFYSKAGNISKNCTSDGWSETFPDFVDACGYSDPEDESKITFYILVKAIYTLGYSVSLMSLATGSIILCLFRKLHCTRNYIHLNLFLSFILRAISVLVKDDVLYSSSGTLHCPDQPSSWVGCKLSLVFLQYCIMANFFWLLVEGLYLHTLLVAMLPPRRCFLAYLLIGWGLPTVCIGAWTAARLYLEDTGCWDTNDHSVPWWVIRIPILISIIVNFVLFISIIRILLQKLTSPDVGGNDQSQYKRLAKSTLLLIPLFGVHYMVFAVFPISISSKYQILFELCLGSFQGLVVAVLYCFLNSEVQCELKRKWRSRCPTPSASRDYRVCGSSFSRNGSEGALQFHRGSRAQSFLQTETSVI
From the text: (§1) To measure the in vitro biological activity and potency of VIP or VIP-ELP fusion proteins, a cell-based bioassay was used. The assay measures the increase in intracellular cyclic adenosine monophosphate (cAMP) concentration in response to treatment with VIP or VIP-ELP fusion proteins in Chinese Hamster Ovary (CHO) cells that have been engineered to express either the human Vasoactive Intestinal Peptide Receptor 2 (VPAC2) or the human Vasoactive Intestinal Peptide Receptor 1 (VPAC1). […] Since the amount of cAMP accumulation in cells after receptor-mediated ligand binding and activation is directly proportional to the amount of intact peptide or fusion protein present, the assay can be used to determine bioactivity and relative potency.
In this example, the activity of VIP-ELP fusion proteins PB1046 and PB1047 was tested. Construct PB1046 contains VIP with a Met at the N-terminus and construct PB1047 contains VIP with Ala-Ala at its N-terminus. Both constructs have ELP (1-120) at their C-terminus. In the first experiment, the activity of the constructs was tested using CHO cells expressing the VIP receptor VPAC2. After 30 minute incubations of various concentrations of the fusion proteins with the cell, the cells were lysed and the amount of cAMP produced was measured using a commercial kit. PB1047 was DPP-IV treated prior to the addition to the cells.
FIG. 13 illustrates the activity of PB1120 for the VPAC2 receptor. Like the results seen for the VPAC1 receptor, PB1120 show slightly less activity (˜1.5 fold less) than the native VIP peptide for VPAC2. However, in contrast to the results seen with VPAC1. PB1046 was equipotent for VPAC2 as compared to the native peptide.

[2] = target: T2, human Vasoactive Intestinal Peptide Receptor 1 (VPAC1) (Homo sapiens, UniProt P32241); assay: cell-based cAMP bioassay in CHO cells expressing VPAC1; settings: for activity compared with native VIP protein for VPAC1 receptor (cAMP produced): CHO cells expressing VPAC1, 30 minute incubation, FIG. 9, PB1047 DPP-IV treated before addition; for fold less active than the native VIP peptide on the VPAC1 receptor: FIG. 12
T2 construct: expressed in transfected cells; host or cells: Chinese Hamster Ovary (CHO) cells
T2 sequence (P32241 31-457): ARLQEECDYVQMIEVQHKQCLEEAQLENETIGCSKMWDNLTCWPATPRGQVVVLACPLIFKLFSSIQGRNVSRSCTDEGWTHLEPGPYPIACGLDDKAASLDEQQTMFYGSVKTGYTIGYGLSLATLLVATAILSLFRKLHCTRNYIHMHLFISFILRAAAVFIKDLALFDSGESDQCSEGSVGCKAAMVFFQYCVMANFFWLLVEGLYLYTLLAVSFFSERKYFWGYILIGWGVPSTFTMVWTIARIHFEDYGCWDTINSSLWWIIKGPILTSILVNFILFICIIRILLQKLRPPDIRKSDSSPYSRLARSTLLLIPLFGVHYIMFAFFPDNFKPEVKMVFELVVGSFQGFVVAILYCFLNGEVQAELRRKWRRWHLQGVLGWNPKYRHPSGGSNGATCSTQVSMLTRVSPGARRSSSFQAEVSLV
From the text: as §1
The activity of PB1046 and PB1047 was also tested using CHO cells expressing the VIP receptor VPAC1. After 30 minute incubations of various concentrations of the fusion proteins with CHO cells, cells were lysed and the amount of cAMP produced was measured using a commercial kit. PB1047 was DPP-IV treated prior to the addition to the cells.
The activity of the PB1120 fusion peptide was tested in vitro. The activity was tested using an assay utilizing CHO cells expressing VIP receptor (VPAC1) as described above in Example 3.

[3] = system: Spontaneously hypertensive rats; assay: blood pressure effect in spontaneously hypertensive rats; type: in vivo, rat; settings: 10 mg/kg subcutaneous
Experimental: The activity of the modified VIP-ELP fusion protein PB1047 was also tested in vivo. Specifically, effects of VIP-ELP fusion protein on blood pressure were tested. Spontaneously hypertensive rats were treated subcutaneous with PB1047 (10 mg/kg) or buffer control and their blood pressures were measured at several points after administration of the fusion protein. Five animals were used for each group and the graphs show the average and the standard deviation.

DPP IV = DPP IV (Homo sapiens, UniProt P27487); assay: DPP IV treatment of the fusion protein; type: biochemical; settings: removal of both AA and HS from the N-terminus
From the text: Plasmid pPB1064 was therefore constructed, where the N-terminus was changed to MAAHG, SEQ ID NO: 45, instead of MAAHS, SEQ ID NO: 46, because HG is more resistant to DPP IV than HS.

[4] = Domschke 1978, Burhol 1978; cited from earlier work
[5] = pharmacokinetic profile in monkeys after single SC injection; type: in vivo, monkey; settings: single SC 3 mg/kg, to day 4
Experimental: In addition to the biological potency assays described above, the pharmacokinetic profile of the VIP-ELP fusion protein PB1120 was also examined. Monkeys were given single subcutaneous (SC) injections (dosed at 3 mg/kg) of PB1120 and plasma drug concentrations were measured daily over the course of one week. Three animals were used and the graphs show the average and the standard deviation.

rats = assay: effects on systolic, diastolic and mean arterial blood pressure in rats; type: in vivo, rat; settings: 9 hrs post-injection
Experimental: To measure the effects of the modified VIP-ELP fusion protein PB1120 on systolic, diastolic, and mean arterial blood pressure, rats were given single, subcutaneous injections of 0.1 mg/kg, 1 mg/kg, or 5 mg/kg of PB1120 and evaluated over 3-hr intervals. FIGS. 15A, 15B, and 15C show the average change in systolic, diastolic, and mean arterial pressure, respectively.

Chain of DPP IV (P27487 whole entry, species assumed, the tested form may be a part): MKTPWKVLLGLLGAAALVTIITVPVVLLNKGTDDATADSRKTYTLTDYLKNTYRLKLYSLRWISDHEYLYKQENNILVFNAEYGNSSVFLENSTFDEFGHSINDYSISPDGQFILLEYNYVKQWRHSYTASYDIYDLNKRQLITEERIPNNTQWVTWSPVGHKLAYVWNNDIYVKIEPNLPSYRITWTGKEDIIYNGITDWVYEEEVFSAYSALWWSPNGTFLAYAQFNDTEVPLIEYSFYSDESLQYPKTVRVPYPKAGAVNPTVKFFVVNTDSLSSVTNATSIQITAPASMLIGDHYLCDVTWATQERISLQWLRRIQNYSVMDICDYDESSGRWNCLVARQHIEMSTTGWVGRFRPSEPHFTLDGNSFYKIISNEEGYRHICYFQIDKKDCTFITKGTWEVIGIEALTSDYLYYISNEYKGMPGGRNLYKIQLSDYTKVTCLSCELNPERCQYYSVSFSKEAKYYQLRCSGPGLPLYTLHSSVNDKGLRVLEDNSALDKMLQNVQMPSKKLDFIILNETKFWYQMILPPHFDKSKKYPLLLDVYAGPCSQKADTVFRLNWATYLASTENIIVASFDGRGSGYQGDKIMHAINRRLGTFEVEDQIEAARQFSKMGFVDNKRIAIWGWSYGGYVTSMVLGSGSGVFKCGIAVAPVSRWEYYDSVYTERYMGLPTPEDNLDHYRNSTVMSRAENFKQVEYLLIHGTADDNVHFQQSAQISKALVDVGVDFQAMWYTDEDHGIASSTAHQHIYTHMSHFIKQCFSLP

potency for VPAC2 compared to the native peptide ([1]; FIG. 13): equipotent
activity compared with native VIP protein for VPAC1 receptor (cAMP produced) [2]: much less active than native VIP protein
fold less active than the native VIP peptide on the VPAC1 receptor [2]: approximately 11 fold
Molecule: PB1046: VIP-ELP fusion protein with Met at the N-terminus and ELP1-120 at the C-terminus (SEQ ID NO. 17; FIG. 1 SEQ ID NO: 14) (MHSDAVFTDNYTRLRKQMAVKKYLNSILN-{ELP1‑120}; also: recombinant VIP-ELP fusion)
activity compared with native VIP protein for VPAC2 receptor (cAMP produced) [1]: somewhat more active than native VIP protein
receptor selectivity VPAC2 over VPAC1 ([1]; comparison of FIG. 8 and FIG. 9): selectively activates VPAC2 receptor over VPAC1 receptor

activity compared with native VIP protein for VPAC2 receptor (cAMP produced) [1]: less active
effect of DPP IV treatment on the peptide (DPP IV): inactivation of the peptide
Molecule: PB1047: VIP-ELP fusion with tripeptide MAA encoded at N-terminus (Ala-Ala after Met removal), ELP1-120 at C-terminus (SEQ ID 18) (MAAHSDAVFTDNYTRLRKQMAVKKYLNSILN-{ELP1‑120}; also: recombinant fusion with ELP1-120 at C-terminus)
activity compared with native VIP protein for VPAC1 receptor (cAMP produced) [2]: about the same as it was in the test for VPAC2 receptor
duration of blood pressure reduction post administration ([3]; systolic and diastolic): at least 12 hours
diastolic blood pressure ([3]; vs buffer control, FIG. 10): significantly reduced
systolic blood pressure ([3]; vs buffer control, FIG. 10): significantly reduced

Molecule: Vasoactive intestinal peptide [VIP]
half-life in blood [4]: less than 2 minutes

fold less activity than the native VIP peptide for VPAC2 ([1]; FIG. 13): ~1.5 fold
fold less active than the native VIP peptide on the VPAC1 receptor [2]: approximately 1.4 fold
B1: PB1120: VIP-ELP1-120 fusion peptide encoded by pPB1120 (protein)
chain: HSDAVFTDNYTRLRKQMAVKKYLNSILNVPGVGVPGVGVPGGGVPGAGVPGVGVPGVGVPGVGVPGGGVPGAGVPGGGVPGVGVPGVGVPGGGVPGAGVPGVGVPGVGVPGVGVPGGGVPGAGVPGGGVPGVGVPGVGVPGGGVPGAGVPGVGVPGVGVPGVGVPGGGVPGAGVPGGGVPGVGVPGVGVPGGGVPGAGVPGVGVPGVGVPGVGVPGGGVPGAGVPGGGVPGVGVPGVGVPGGGVPGAGVPGVGVPGVGVPGVGVPGGGVPGAGVPGGGVPGVGVPGVGVPGGGVPGAGVPGVGVPGVGVPGVGVPGGGVPGAGVPGGGVPGVGVPGVGVPGGGVPGAGVPGVGVPGVGVPGVGVPGGGVPGAGVPGGGVPGVGVPGVGVPGGGVPGAGVPGVGVPGVGVPGVGVPGGGVPGAGVPGGGVPGVGVPGVGVPGGGVPGAGVPGVGVPGVGVPGVGVPGGGVPGAGVPGGGVPGVGVPGVGVPGGGVPGAGVPGVGVPGVGVPGVGVPGGGVPGAGVPGGGVPGVGVPGVGVPGGGVPGAGVPGVGVPGVGVPGVGVPGGGVPGAGVPGGGVPGVGVPGVGVPGGGVPGAGVPGVGVPGVGVPGVGVPGGGVPGAGVPGGGVPGWP
modifications: VIP ELP1-120
notes: VIP-ELP1-120 fusion peptide encoded by pPB1120
portion of initial dose remaining in the circulation [5]: More than half
diastolic pressure (rats; 1 mg/kg SC): significant reductions
mean arterial pressure (rats; 1 mg/kg SC): significant reductions
systolic pressure (rats; 1 mg/kg SC): significant reductions
diastolic pressure (rats; 5 mg/kg SC): significant reductions
mean arterial pressure (rats; 5 mg/kg SC): significant reductions
systolic pressure (rats; 5 mg/kg SC): significant reductions
